One may read the Kd as the free concentration of one partner at which half of the binding sites on the other are occupied at equilibrium, for simple one-to-one binding. A high value points to weaker binding.

For test [1], the target named is type 2β regulatory subunit of PKA (RIIβ), full length (rat, UniProt P12369 1-416). In words: fluorescence polarisation.
The target in test [2] is type 2α regulatory subunit of PKA (RIIα), full length (rat, UniProt P12368 1-401). In words: fluorescence polarisation. (Polarisation of emitted light reports the rotation of a fluorescent probe.)
Chain of type 2α regulatory subunit of PKA (RIIα), full length (P12368 whole entry): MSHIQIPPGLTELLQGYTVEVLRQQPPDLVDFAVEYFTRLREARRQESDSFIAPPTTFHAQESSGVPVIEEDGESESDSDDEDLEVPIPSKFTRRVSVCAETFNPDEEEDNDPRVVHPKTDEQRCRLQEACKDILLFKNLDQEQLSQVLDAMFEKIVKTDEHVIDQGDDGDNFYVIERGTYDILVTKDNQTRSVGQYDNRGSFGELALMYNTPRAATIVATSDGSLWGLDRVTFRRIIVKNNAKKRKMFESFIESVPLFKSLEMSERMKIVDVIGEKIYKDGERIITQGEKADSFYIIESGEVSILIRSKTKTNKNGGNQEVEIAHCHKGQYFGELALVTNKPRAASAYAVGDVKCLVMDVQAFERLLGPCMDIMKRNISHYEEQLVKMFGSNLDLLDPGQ

Chain of type 2β regulatory subunit of PKA (RIIβ), full length (P12369 whole entry): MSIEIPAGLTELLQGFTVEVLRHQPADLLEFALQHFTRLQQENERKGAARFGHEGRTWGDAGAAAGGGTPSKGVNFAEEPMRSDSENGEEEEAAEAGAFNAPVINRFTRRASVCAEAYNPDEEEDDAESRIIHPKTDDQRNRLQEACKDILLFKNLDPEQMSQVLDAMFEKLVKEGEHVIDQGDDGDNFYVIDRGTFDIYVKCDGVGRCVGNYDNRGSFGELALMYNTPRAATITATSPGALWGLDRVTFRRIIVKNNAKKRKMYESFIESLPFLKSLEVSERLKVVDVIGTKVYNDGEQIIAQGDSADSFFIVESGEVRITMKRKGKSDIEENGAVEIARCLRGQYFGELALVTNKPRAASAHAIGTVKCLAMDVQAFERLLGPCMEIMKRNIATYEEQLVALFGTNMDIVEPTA

B1: S100A1 (natural protein)
chain: GSELETAMETLINVFHAHSGKEGDKYKLSKKELKELLQTELSGFLDAQKDVDAVDKVMKELDENGDGEVDFQEYVVLVAALTVACNNFFWENS
On to B1, for which the values for the dissociation constant (Kd) in test [1] and in test [2] were 2160 nM and 990 nM, respectively.

These data come from PMC5415871 (Biochemistry, 2017).
